Assay: soluble on expression in E. coli; label from the status in PepcDB or PDB records

| Sequence | soluble on expression in E. coli |
| --- | --- |
| GMGGAALPDNGWPADRIDTESAHSARIYDYIIGGKDYYPADKEAGDAMSREWPALPVHMRANRDWMNRAVAHLAKEAGIRQFLDIGTGIPTSPNLHEIAQSVAPESRVVYVDNDPIVLTLSQGLLASTPEGRTAYVEADMLDPASILDAPELRDTLDLTRPVALTVIAIVHFVLDEDDAVGIVRRLLEPLPSGSYLAMSIGTAEFAPQEVGRVAREYAARNMPMRLRTHAEAEEFFEGLELVEPGIVQVHKWHPDAATADGIRDEDIAMYGAVARKP | soluble |
| GMGQRSDSDHVMAEATTDKRQGHTRGRTGNDRRTQIIKVATELFREKGYYATSLDDIADRIGFTKPAIYYYFKSKEDVLFAIVNSIVDEALERFHAIAAGPGSPGERIHALLVEHTRTILRNLDANTLFYNERGLLSPEREREMRKREREYTEIMQRLYAEGVATGELLDVDPTVATATLLGAAIWTYRWYDPEGRLSADEVVEQITRLLLNGYRRPA | soluble |
| GMGVNMRAETESRIFSVDEYVRPSNGEPIRSVVLETNDSVVVVWHAHPGQEIASHVHPHGQDTWTVISGEAEYHQGNGIVTHLKAGDIAIAKPGQVHGAMNSGPEPFIFVSVVAPGNAGFALAEK | soluble |
| GMIGDGIENSPLLTDLAFPYRLLGAGKESRECLFLLHGSGVDETTLVPLARRIAPTATLVAARGRIPQEDGFRWFERIDPTRFEQKSILAETAAFAAFTNEAAKRHGLNLDHATFLGYSNGANLVSSLMLLHPGIVRLAALLRPMPVLDHVPATDLAGIRTLIIAGAADETYGPFVPALVTLLSRHGAEVDARIIPSGHDIGDPDAAIVRQWLAGPIAIAQAD | soluble |
| GMILKTNLFGHTYQFKSITDVLAKANEEKSGDRLAGVAAESAEERVAAKVVLSKMTLGDLRNNPVVPYETDEVTRIIQDQVNDRIHDSIKNWTVEELREWILDHKTTDADIKRVARGLTSEIIAAVTKLMSNLDLIYGAKKIRVIAHANTTIGLPGTFSARLQPNHPTDDPDGILASLMEGLTYGIGDAVIGLNPVDDSTDSVVRLLNKFEEFRSKWDVPTQTCVLAHVKTQMEAMRRGAPTGLVFQSIAGSEKGNTAFGFDGATIEEARQLALQSGAATGPNVMYFETGQGSELSSDAHFGVDQVTMEARCYGFAKKFDPFLVNTVVGFIGPEYLYDSKQVIRAGLEDHFMGKLTGISMGCDVCYTNHMKADQNDVENLSVLLTAAGCNFIMGIPHGDDVMLNYQTTGYHETATLRELFGLKPIKEFDQWMEKMGFSENGKLTSRAGDASIFLK | soluble |
| GMKQSKKIIITCAVTGSIHTPTMSPYLPITPEEIVKEGVAAAEAGAAMLHLHARDPLNGRPSQDPDLFMRFLPQLKERTDAILNITTGGGLGMSLDERLAPARAARPEVASMNMGSLNFNISQAAAKFDTFKFDWERPYLAGTRDFILSNTFSQIERGMTELGASGTRFEFECYDVGHLYNLAHFVDRKLVEPPFFLQCVFGILGGIGADPENLLHMRTIADRLFGQDYYLSVLAAGRHQMPFVTMSAILGGNVRVGLEDSLYSGKGQLATSNAEQVRKIRRIIEELSLDIATPDEARAMLKTKGANETSF | soluble |
| GMKYKAAIFDMDGTILDTSADLTSALNYAFEQTGHRHDFTVEDIKNFFGSGVVVAVTRALAYEAGSSRESLVAFGTKDEQIPEAVTQTEVNRVLEVFKPYYADHCQIKTGPFPGILDLMKNLRQKGVKLAVVSNKPNEAVQVLVEELFPGSFDFALGEKSGIRRKPAPDMTSECVKVLGVPRDKCVYIGDSEIDIQTARNSEMDEIAVNWGFRSVPFLQKHGATVIVDTAEKLEEAILGE | soluble |
| GMNQNKITAGGLEFLVRFAAPTDRLKINDLMIDTARWLKESGSTQWSDILHGFDVHNIEQRIELGEVALFETEAGALAGAMIIRKTPSDWDTDLWEDLAIDKAYYLHRIMVSRAFSGISLSKQMIYFAEKLGIEMSVPFIRLDCIESNETLNQMYVRYGFQFSGKKNGFYLYQKELSQK | soluble |
| GMPQHDKSRLVRIDTGPMINPVAGKPSRPIAGDASFRTVTAFEGGQGKVESGVWESTSGSFQSNTTGYIEYCHIIEGEARLVDPDGTVHAVKAGDAFIMPEGYTGRWEVDRHVKKIYFVTHLA | soluble |
| GMPRPKLKSDDEVLEAATVVLKRCGPIEFTLSGVAKEVGLSRAALIQRFTNRDTLLVRMMERGVEQVRHYLNAIPIGAGPQGLWEFLQVLVRSMNTRNDFSVNYLISWYELQVPELRTLAIQRNRAVVEGIRKRLPPGAPAAAELLLHSVIAGATMQWAVDPDGELADHVLAQIAAILCLMFPEHDDFQLLQAHA | soluble |
| GMQATTATPHDIVFLFDCDNTLLDNDHVLADLRAHMMREFGAQNSARYWEIFETLRTELGYADYLGALQRYRLEQPRDTRLLLMSSFLIDYPFASRVYPGALNALRHLGARGPTVILSDGDVVFQPRKIARSGLWDEVEGRVLIYIHKELMLDQVMECYPARHYVMVDDKLRILAAMKKAWGARLTTVFPRQGHYAFDPKEISSHPPADVTVERIGDLVEMDAEWLLAEKR | soluble |
| GMQGAGRLMQPRPDSAFVHDVRVTWGDCDPAKIAYTGHLPRFALEAIDAWWSEYHGPGGWYHLELDTNVGTPFVRLEMDFKSPVTPRHILKCHTWPTRLGTKSITFRVDGVQDGVTCFVGAFTCVFTIADQFKSQPAPDHLRALIEPHIPA | soluble |
| GMQQSEHFSFGEQTEIEDIGGGLKRQMLGFNHELMAVKIWFDKGAEGYVHAHRHSQVSYVVEGEFHVNVDGVIKVLTAGDSFFVPPHVDHGAVCPTGGILIDTFSPAREDFVEGLS | soluble |
| GMSAQAKNKLEALKAMTTVVADTGDIEAIKQFKPVDATTNPSLILKAAKLANYQHLIEEAIDWALQIKGNDKNSQTTLENVGDKLAVNIGCEVLTSIPGVISTEVDARLSFDTQATVAKARKLIRLYQDAGIDSDRILIKIASTWEGIQAAKILEAEGIHCNLTLLFHFAQAQACAEAGTTLISPFVGRILDWYKANSGQSEYSASEDPGVVSVTEIYNFYKSHGFKTIVMGASFRNTGEIEELAGCDRLTISPELLAQLEADTSPLEQKLFPIKETKDTPELLTEASFRWAMNNDPMAHDKLADGIRRFAADQVTLESMLSKKISQRS | soluble |
| GMSGDILNDIVAACLELERKASSVFKMFAAHAGSDEARRFWETVADETRHHSAVYERLQERGGRENLPIIIYKPAETLEELEMIGKSIDEQVERYTEAPSSEAACLLGFRLQLYLLHPAFASLCRLTRDASGEDLPDIGYGRYLRRFIDGIGSCGLATAETELLGEALFRLWNEARQLAAQSHFDALTGVMTRAGFFKTVGSLAYAAQRSGSNVGIMLIDLDYFKLVGDNYGHQTGDRILQLVAETITSHLRRSDVVGRYDGDEFVVYLSPVEPASLRTVAENLRRSIEEESARMVPVTASIGVAQGILGTDVDGGIEELVRLADECLMQAKYTGKNKVVVK | soluble |
| GMSLAPWRGAIAHALHRNRSLVYARYLQLATVQPNGRPANRTLVFRGFLEDTNQLRFITDTRSAKADQIQQQPWAEICWYFPNTREQFRMAGDLTLISSDDSHQDLQPARIAMWQELSDAARLQFGWPYPGKPRIKESGAFEPSPPDPIEPVPNFCLLLLDPVQVDHLELRGEPQNRWLYHRNDQQEWSSEAINP | soluble |
| GMSQATAKVNREVQAFLQDLKGKTIDHVFFVACGGSSAIMYPSKYVFDRESKSINSDLYSANEFIQRNPVQLGEKSLVILCSHSGNTPETVKAAAFARGKGALTIAMTFKPESPLAQEAQYVAQYDWGDEALAINTNYGVLYQIVFGTLQVLENNTKFEQAIEGLDQLQAVYEKALKQEADNAKQFAKAHEKESIIYTMASGANYGVAYSYSICILMEMQWIHSHAIHAGEYFHGPFEIIDESVPFIILLGLDETRPLEERALTFSKKYGKKLTVLDAASYDFTAIDDSVKGYLAPLVLNRVLRSYADELAEERNHPLSHRRYMWKVEY | soluble |
| GMSVPQRPHQFVLTLSCPSAAGQVAAVVGLLDRHRCYVDELTVFDDDLSARFFVRCVFHATDDADALRVDALRREFEPIAERFRMQWAIHDVAARPKVLIMVSKLEHCLADLLFRWKMGELKMDIVGIVSNHPDFAPLAAQHGLPFRHFPITADTKAQQEAQWLDVFETSGAELVILARYMQVLSPEASARLANRAINIHHSFLPGFKGAKPYHQAHARGVKLIGATAHFVTDDLDEGPIIEQVVERVDHSYRPEQLLAVGRDVECITLARAVKAFIERRVFLNGDRTVVFQ | soluble |
| GMTKLPATSDIYISFFMFTTNLQPDNLDYRRIVVAHIKKLQRFGYSGFEFPIAPGLPENYAQDLENYTNLRHYLDSEGLENVKISTNVGATRTFDPSSNYPEQRQEALEYLKSRVDITAALGGEIMMGPIVIPYGVFPTTDFNEPIWSDELQEHLKVRYANAQPILDKLGEYAEIKKVKLAIEPITHWETPGPNKLSQLIEFLKGVKSKQVGVVIDSAHEILDGEGPEIFKTQVEYLAQQGRLHYVQVSPPDRGALHTSWLPWKSFLTPIVKVYDGPIAVEIFNAIPAFTNSLRLTRRKFWIPDEDPPNQYPNAYDIADEAIKVTRKELKKIGSK | soluble |
| GMTQPHQIILLAHGSSDARWCETFEKLAEPTVESIENAAIAYMELAEPSLDTIVNRAKGQGVEQFTVVPLFLAAGRHLRKDVPAMIERLEAEHGVTIRLAEPIGKNPRLGLAIRDVVKEELERSEH | soluble |
| GMTQQTDLQSKTNIDPLAMNDSFLAAADALAVDPMFGIPANVREVIARRGNATRLVILGTKGFGAHLMNVRHERPCEVIAAVDDFRYHSGELYYGLPIISTDRFTELATHDRDLVALNTCRYDGPKRFFDQICRTHGIPHLNFEQAVRAFGLQGNVDYRVDDWGADIVRNIPAFQTLAQRLADDYSVQTLYAVLNFHLTCEPEYYHEVERPYSTLYFRSGLLRFSDSEKMVDCGASIGESLAGLIGVTKGKFERVWMIEPDRINLQTLQNVLRRYTDTNFASRITVHGCGAGENTIRVPFNHEGGHGGFVKPADADHEPADLIDVRPIDDIIDDAPTFIKMDIEGSELSALKGARRAISEHKPKLAISAYHRSTDLLDLTNYILSIRPDYQIGLRHHTPDRWDTCLYFY | soluble |
| GMTRIASHRGGTLEFGDSTPHGFTATAAMALEEVEFDLHPTADGAIVVHHDPTLDATTDMTGAIVDMTLAKVKTATIRYGAGSHPMTLEELCALYVDSHVNFRCEIKPGVDGLPYEGFVALVIAGLERHSMLERTTFSSFLLASMDELWKATTRPRLWLVSPSVLQQLGPGAVIETAIAHSIHEIGVHIDTADAGLMAQVQAAGLDFGCWAAHTPSQITKALDLGVKVFTTDRPTLAIALRTEHRMEASV | soluble |
| GMVPMTRFDSATEVVRVGENRYAVELDPGYLIGTAMNGGYLMTVLQRSALAESDHLHAVSSSYHFHRPASSGPAEIETRVLKRGRTVTTVQTTLFQEGRTILTGTLATATLDPHAEPRYAAPQPAIPPQHQCRRVDPRQSHLPDDGFLARVDVDFSPDSYAALARERTVTTPELCGYVDLSARDGGSAKDPLAFLPLAVDALPPIVSLLVDWSWAPTVELTWHLRAIPEPGPLAFRSTCALVSDGWFDENVDLWDARGRLVAQSRQLARVGR | soluble |
| GNIESIENLQGIRALQQQAPQLLSSGLPNEQQFSLLKQAGVDVVINLMPDSSKDAHPDEGKLVTQAGMDYVYIPVDWQNPKVEDVEAFFAAMDQHKGKDVLVHCLANYRASAFAYLYQLKQGQNPNMAQTMTPWNDELAIYPKWQALLTEVSAKYGH | soluble |
| GNNFNWTSVLNMTHNKNKIVSLDGKLDQSIEGSWFIHKVGLPYSTFYVKEYAGVDPQTGKALYYMNTQDANGNYDRTVTTDASAAQAIPYKSVDPKISGGFTNIVNYKWFDLALTLTYSLGGYSFDKTGTYNETDGAKEQNYNLPIYELDRWQKPGDVTDVPRFVLGQAAGPQNSSRYVHSTDHLRVKNLTLGFTLPDQWLTKLGVSKARLYFSGSNLLTWAKWDQYDPEVPVSGEVFCETPPMRTYSFGIEVSF | not soluble |

— the DeepSol protein solubility set
